The source of these data is patent US20220411483A1 (Chugai, published 2022).

Test [1] has as its target T1, FcγRIIa R type extracellular domain with C-terminal His tag (human, UniProt P12318 34-217).
T1 construct: extracellular domain; also called FcgRIIaR; not shown: His tag at the C terminus
T1 sequence (looked up): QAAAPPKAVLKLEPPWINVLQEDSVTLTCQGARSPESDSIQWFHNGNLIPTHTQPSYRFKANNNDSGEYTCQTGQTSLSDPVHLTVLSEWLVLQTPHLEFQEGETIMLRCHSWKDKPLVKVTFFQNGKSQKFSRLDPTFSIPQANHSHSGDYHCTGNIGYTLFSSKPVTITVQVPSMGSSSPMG
Description: SPR; KD of IL6R-B3/IL6R-L divided by KD of variant.

Test [2] has as its target T2, FcγRIIb extracellular domain with C-terminal His tag (human, UniProt P31994 43-217).
T2 construct: extracellular domain; also called FcgRIIb; not shown: His tag at the C terminus
T2 sequence (looked up): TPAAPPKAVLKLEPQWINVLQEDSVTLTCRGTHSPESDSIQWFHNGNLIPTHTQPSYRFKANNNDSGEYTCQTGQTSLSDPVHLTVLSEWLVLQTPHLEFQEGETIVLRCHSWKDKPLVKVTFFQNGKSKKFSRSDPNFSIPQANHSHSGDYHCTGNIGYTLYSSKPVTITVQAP
Description: SPR; KD of IL6R-B3/IL6R-L divided by KD of variant. A general note: In SPR one partner is held on a chip, and binding of the other changes the refractive index at the surface.

For test [3], the target named is T3, FcγRIIa H type extracellular domain with C-terminal His tag (human, UniProt P12318 34-217).
T3 construct: extracellular domain; also called FcgRIIaH; not shown: His tag at the C terminus
T3 sequence (looked up): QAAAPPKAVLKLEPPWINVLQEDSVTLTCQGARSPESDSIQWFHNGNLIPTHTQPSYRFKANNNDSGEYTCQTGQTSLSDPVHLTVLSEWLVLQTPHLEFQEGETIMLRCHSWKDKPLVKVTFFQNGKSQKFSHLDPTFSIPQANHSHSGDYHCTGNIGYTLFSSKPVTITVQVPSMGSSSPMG
Description: SPR, antibody captured, FcgR analyte.

For test [4], the target named is T1, FcγRIIa R type extracellular domain …. Description: SPR, antibody captured, FcgR analyte.
In test [5] the target is T4, FcγRIa extracellular domain with C-terminal His tag (human, UniProt P12314 16-292).
T4 construct: also called FcgRIa; CD64; not shown: His tag at the C terminus
T4 sequence (P12314 16-292): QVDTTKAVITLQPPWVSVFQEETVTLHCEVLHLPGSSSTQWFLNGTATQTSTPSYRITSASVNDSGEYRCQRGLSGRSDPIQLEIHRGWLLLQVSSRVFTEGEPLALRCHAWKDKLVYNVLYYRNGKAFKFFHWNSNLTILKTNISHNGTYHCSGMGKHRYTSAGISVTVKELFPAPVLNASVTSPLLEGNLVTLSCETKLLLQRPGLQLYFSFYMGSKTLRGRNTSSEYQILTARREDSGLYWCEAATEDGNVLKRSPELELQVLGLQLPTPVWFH
Nature of the test: SPR, antibody captured, FcgR analyte.

In test [6] the target is T2, FcγRIIb extracellular domain with …. Nature of the test: SPR, antibody captured, FcgR analyte.

B1: IL6R-BP502/IL6R-L (antibody, human IgG1, kappa, name in EU numbering)
heavy: QVQLQESGPGLVKPSETLSLTCAVSGHSISHDHAWSWVRQPPGEGLEWIGFISYSGITNYNPSLQGRVTISRDNSKNTLYLQMNSLRAEDTAVYYCARSLARTTAMDYWGEGTLVTVSSASTKGPSVFPLAPSSKSTSGGTAALGCLVKDYFPEPVTVSWNSGALTSGVHTFPAVLQSSGLYSLSSVVTVPSSSLGTQTYICNVNHKPSNTKVDKKVEPKSCDKTHTCPPCPAPDLLGDDSVFLFPPKPKDTLMISRTPEVTCVVIDVAEEDGEVKFNWYVDGVEVHNAKTKPREEQDNSTYRVVSVLTVLHQDWLNGKEYKCKVSNKGLPRPIEKTISKAKGQPREPQVYTLPPSRDELTKNQVSLTCLVKGFYPSDIAVEWESNGQPENNYKTTPPVLDSDGSFFLYSKLTVDKSRWQQGNVFSCSVMHEALHNHYTQESLSLSP
light: not shown
notes: human IgG1
B1: the “Relative FcgRIIaR-binding Activity” value in test [1] came to 9.9. The “Relative FcgRIIb-binding Activity” value in test [2] was 837. The dissociation constant Kd (usually the concentration at which binding is half-saturated) in test [3] stood at 1300 nM; in test [4], 110 nM; in test [5], 2.1 nM; in test [6], 3.7 nM.

B2: IL6R-BP511/IL6R-L (antibody, human IgG1, kappa, name in EU numbering)
heavy: QVQLQESGPGLVKPSETLSLTCAVSGHSISHDHAWSWVRQPPGEGLEWIGFISYSGITNYNPSLQGRVTISRDNSKNTLYLQMNSLRAEDTAVYYCARSLARTTAMDYWGEGTLVTVSSASTKGPSVFPLAPSSKSTSGGTAALGCLVKDYFPEPVTVSWNSGALTSGVHTFPAVLQSSGLYSLSSVVTVPSSSLGTQTYICNVNHKPSNTKVDKKVEPKSCDKTHTCPPCPAPELLGDDSVFLFPPKPKDTLMISRTPEVTCVVIDVAEEDGPVKFNWYVDGVEVHNAKTKPREEQDNSTYRVVSVLTVLHQDWLNGKEYKCKVSNKALPRPIEKTISKAKGQPREPQVYTLPPSRDELTKNQVSLTCLVKGFYPSDIAVEWESNGQPENNYKTTPPVLDSDGSFFLYSKLTVDKSRWQQGNVFSCSVMHEALHNHYTQESLSLSP
light: not shown
notes: human IgG1
As to B2, the “Relative FcgRIIaR-binding Activity” value in test [1] came out at 6.1. Moreover, the “Relative FcgRIIb-binding Activity” value in test [2] worked out at 888. Also, the Kd in test [3] worked out at 4300 nM; in test [4], 180 nM; in test [5] it was 6 nM; in test [6], 3.5 nM.

B3: IL6R-BP538/IL6R-L (antibody, human IgG1, kappa, name in EU numbering)
heavy: QVQLQESGPGLVKPSETLSLTCAVSGHSISHDHAWSWVRQPPGEGLEWIGFISYSGITNYNPSLQGRVTISRDNSKNTLYLQMNSLRAEDTAVYYCARSLARTTAMDYWGEGTLVTVSSASTKGPSVFPLAPSSKSTSGGTAALGCLVKDYFPEPVTVSWNSGALTSGVHTFPAVLQSSGLYSLSSVVTVPSSSLGTQTYICNVNHKPSNTKVDKKVEPKSCDKTHTCPPCPAPELLGDDSVFLFPPKPKDTLMISRTPEVTCVVIDVSEEDGEVKFNWYVDGVEVHNAKTKPREEQYNSTYRVVSVLTVLHQDWLNGKEYKCKVSNKALPRPIEKTISKAKGQPREPQVYTLPPSRDELTKNQVSLTCLVKGFYPSDIAVEWESNGQPENNYKTTPPVLDSDGSFFLYSKLTVDKSRWQQGNVFSCSVMHEALHNHYTQESLSLSP
light: not shown
notes: human IgG1
On to B3, for which the “Relative FcgRIIaR-binding Activity” value in test [1] was determined as 5.3. For the same molecule, the “Relative FcgRIIb-binding Activity” value in test [2] worked out at 585. Besides, the dissociation constant (Kd) in test [3] stood at 3000 nM; in test [4] it was 200 nM; in test [5] it was 55 nM; in test [6], 5.3 nM.

B4: IL6R-BP536/IL6R-L (antibody, human IgG1, kappa, name in EU numbering)
heavy: QVQLQESGPGLVKPSETLSLTCAVSGHSISHDHAWSWVRQPPGEGLEWIGFISYSGITNYNPSLQGRVTISRDNSKNTLYLQMNSLRAEDTAVYYCARSLARTTAMDYWGEGTLVTVSSASTKGPSVFPLAPSSKSTSGGTAALGCLVKDYFPEPVTVSWNSGALTSGVHTFPAVLQSSGLYSLSSVVTVPSSSLGTQTYICNVNHKPSNTKVDKKVEPKSCDKTHTCPPCPAPDLLGDDSVFLFPPKPKDTLMISRTPEVTCVVIDVSEEDGEVKFNWYVDGVEVHNAKTKPREEQDNSTYRVVSVLTVLHQDWLNGKEYKCKVSNKGLPRPIEKTISKAKGQPREPQVYTLPPSRDELTKNQVSLTCLVKGFYPSDIAVEWESNGQPENNYKTTPMVLDSDGSFFLYSKLTVDKSRWQQGNVFSCSVMHEALHNHYTQESLSLSP
light: not shown
notes: human IgG1
Turning to B4, the “Relative FcgRIIaR-binding Activity” value in test [1] was 13.7. Further, the “Relative FcgRIIb-binding Activity” value in test [2] was determined as 1040. In addition, the equilibrium dissociation constant (Kd) in test [3] turned out to be 1300 nM; in test [4], 79 nM; in test [5], 8.9 nM; in test [6] it was 3 nM.

B5: IL6R-BP539/IL6R-L (antibody, human IgG1, kappa, name in EU numbering)
heavy: QVQLQESGPGLVKPSETLSLTCAVSGHSISHDHAWSWVRQPPGEGLEWIGFISYSGITNYNPSLQGRVTISRDNSKNTLYLQMNSLRAEDTAVYYCARSLARTTAMDYWGEGTLVTVSSASTKGPSVFPLAPSSKSTSGGTAALGCLVKDYFPEPVTVSWNSGALTSGVHTFPAVLQSSGLYSLSSVVTVPSSSLGTQTYICNVNHKPSNTKVDKKVEPKSCDKTHTCPPCPAPELLGDDSVFLFPPKPKDTLMISRTPEVTCVVIDVGEEDGPVKFNWYVDGVEVHNAKTKPREEQDNSTYRVVSVLTVLHQDWLNGKEYKCKVSNKALPRPIEKTISKAKGQPREPQVYTLPPSRDELTKNQVSLTCLVKGFYPSDIAVEWESNGQPENNYKTTPPVLDSDGSFFLYSKLTVDKSRWQQGNVFSCSVMHEALHNHYTQESLSLSP
light: not shown
notes: human IgG1
On to B5, for which the “Relative FcgRIIaR-binding Activity” value in test [1] stood at 3.3. In test [2], the “Relative FcgRIIb-binding Activity” value turned out to be 368. For the same molecule, the Kd in test [3] amounted to 5600 nM; in test [4], 330 nM; in test [5] it was 64 nM; in test [6], 8.4 nM.

B6: IL6R-BP503/IL6R-L (antibody, human IgG1, kappa, name in EU numbering)
heavy: QVQLQESGPGLVKPSETLSLTCAVSGHSISHDHAWSWVRQPPGEGLEWIGFISYSGITNYNPSLQGRVTISRDNSKNTLYLQMNSLRAEDTAVYYCARSLARTTAMDYWGEGTLVTVSSASTKGPSVFPLAPSSKSTSGGTAALGCLVKDYFPEPVTVSWNSGALTSGVHTFPAVLQSSGLYSLSSVVTVPSSSLGTQTYICNVNHKPSNTKVDKKVEPKSCDKTHTCPPCPAPDLLGDDSVFLFPPKPKDTLMISRTPEVTCVVIDVAEEDGEVKFNWYVDGVEVHNAKTKPREEQDNSTYRVVSVLTVLHQDWLNGKEYKCKVSNKGLPRPIEKTISKAKGQPREPQVYTLPPSRDELTKNQVSLTCLVKGFYPSDIAVEWESNGQPENNYKTTPMVLDSDGSFFLYSKLTVDKSRWQQGNVFSCSVMHEALHNHYTQESLSLSP
light: not shown
notes: human IgG1
B6: the “Relative FcgRIIaR-binding Activity” value in test [1] was determined as 19. In addition, in test [2], the “Relative FcgRIIb-binding Activity” value stood at 1810. The Kd in test [3] was found to be 860 nM; in test [4], 57 nM; in test [5], 1.2 nM; in test [6], 1.7 nM.

B7: IL6R-BP533/IL6R-L (antibody, human IgG1, kappa, name in EU numbering)
heavy: QVQLQESGPGLVKPSETLSLTCAVSGHSISHDHAWSWVRQPPGEGLEWIGFISYSGITNYNPSLQGRVTISRDNSKNTLYLQMNSLRAEDTAVYYCARSLARTTAMDYWGEGTLVTVSSASTKGPSVFPLAPSSKSTSGGTAALGCLVKDYFPEPVTVSWNSGALTSGVHTFPAVLQSSGLYSLSSVVTVPSSSLGTQTYICNVNHKPSNTKVDKKVEPKSCDKTHTCPPCPAPDLLGDDSVFLFPPKPKDTLMISRTPEVTCVVIDVGEEDGEVKFNWYVDGVEVHNAKTKPREEQDNSTYRVVSVLTVLHQDWLNGKEYKCKVSNKALPRPIEKTISKAKGQPREPQVYTLPPSRDELTKNQVSLTCLVKGFYPSDIAVEWESNGQPENNYKTTPLVLDSDGSFFLYSKLTVDKSRWQQGNVFSCSVMHEALHNHYTQESLSLSP
light: not shown
notes: human IgG1
Turning to B7, the “Relative FcgRIIaR-binding Activity” value in test [1] turned out to be 9. In addition, the “Relative FcgRIIb-binding Activity” value in test [2] is 754. For the same molecule, the Kd in test [3] came out at 2600 nM; in test [4] it was 120 nM; in test [5], 7.7 nM; in test [6], 4.1 nM.
